Data from the supplement of paper PMC10126150.
± gives the standard deviation of the averaged measurements.

The sequences below were run on ATP (assay: switch fluorescence ratio, 500 uM ATP over buffer (Cy3 cluster intensity, sum of 5 cycles each) (fold (ratio)); higher = stronger signal-on switching upon ATP binding; sequences stand for … in TCGTCGGCAGCGTCAGATGTGTATAAGAGACAGTTTTTTTTTTTTTTTTTTTTTTTTT…TC). Settings: aptamer strand: ATP DNA aptamer (quencher-CACCTGGGGGAGTATTGCGGAGGAAGG + anchor), 100 nM annealed; ATP concentration: 500 uM.
Outline: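 Cy3-labelled switching-strand clusters on a modified Illumina MiSeq flow-cell were annealed to 100 nM quencher-labelled ATP aptamer, imaged in selection buffer, then imaged after 15 min with 500 uM ATP at 22 °C. Five buffer/ATP cycles ran, with NaOH stripping and re-annealing between them. The fluorescence ratio is summed target-cycle over summed buffer-cycle Cy3 intensity per cluster, averaged per switch-domain sequence. Clusters outside 100-1000 RFU were excluded.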
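Further: ATP exposure 15 min at 22 °C before imaging.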

CGCGTTAGA and TAGGCGGGTG are within error of each other in switch fluorescence ratio: 1.04 ± 0.017 for the first, 1.03 ± 0.023 for the second.

ATCAGATTTT and ATAGAGGGGG are within error of each other in switch fluorescence ratio: 0.9867 ± 0.0034 for the first, 0.996 ± 0.03 for the second.

TTCGTTGTGG and TTAAAGTCCC are within error of each other in switch fluorescence ratio: 1.031 ± 0.0047 for the first, 0.993 ± 0.033 for the second.

AGGTTTGGCT and TTCTAACTCA are within error of each other in switch fluorescence ratio: 1.01 ± 0.028 for the first, 1.02 ± 0.029 for the second.

Compared with GTGGACCGGA, GGGTGGCAAG is lower in switch fluorescence ratio: 1.06 ± 0.012 for the first, 0.996 ± 0.03 for the second.

TTGGGTAATG and CGTTAATTCG are within error of each other in switch fluorescence ratio: 1.01 ± 0.027 for the first, 1 ± 0.028 for the second.

Going from CCGTGGGTAC to CAAATAAGTA, the switch fluorescence ratio falls from 5.55 ± 0.7 to 1.01 ± 0.033.

GGAGGGAGGT and ATACGCAGGG are within error of each other in switch fluorescence ratio: 1.01 ± 0.012 for the first, 1.06 ± 0.061 for the second.

First: GTGAAATAGG
Second: CTTGACTTTT
The switch fluorescence ratio of the first is lower: 0.981 ± 0.014 for the first, 1.015 ± 0.0014 for the second.

Compared with TTTATGGTCC, CGCCAGCATA is higher in switch fluorescence ratio: 1.02 ± 0.029 for the first, 2.82 ± 0.31 for the second.

ATCCTTGTTT and CTAGCTGACC are within error of each other in switch fluorescence ratio: 0.997 ± 0.083 for the first, 1.11 ± 0.046 for the second.

AAGACTCTGG and GAGACAGGAT are within error of each other in switch fluorescence ratio: 0.973 ± 0.044 for the first, 1.01 ± 0.04 for the second.

Compared with TCTTCGACCG, AGAGAATGGT is lower in switch fluorescence ratio: 1.31 ± 0.28 for the first, 0.999 ± 0.027 for the second.

CGCCTAGAGG and ACTCTGGTCA are within error of each other in switch fluorescence ratio: 1.02 ± 0.032 for the first, 0.986 ± 0.027 for the second.

TTCGGATAAA and GCGGGTCTGG are within error of each other in switch fluorescence ratio: 1.01 ± 0.058 for the first, 1.03 ± 0.022 for the second.

CGGAGATACG and AGGGATCAGC are within error of each other in switch fluorescence ratio: 1.02 ± 0.029 for the first, 1 ± 0.008 for the second.

CCAAGGGTTT and AGCTAGAGCT are within error of each other in switch fluorescence ratio: 0.993 ± 0.06 for the first, 0.963 ± 0.033 for the second.

Going from AGGCGGCGG to AGTCAAACGA, the switch fluorescence ratio rises from 0.975 ± 0.022 to 1.03 ± 0.028.

CGCTTGGGGT and AGGGGAGGAT are within error of each other in switch fluorescence ratio: 0.9626 ± 0.0092 for the first, 1.1 ± 0.15 for the second.

ATATTAAGTC and GATGAAGACT are within error of each other in switch fluorescence ratio: 1.02 ± 0.013 for the first, 1 ± 0.067 for the second.

GGGTTATGTT and CTAAATTTTA are within error of each other in switch fluorescence ratio: 0.977 ± 0.024 for the first, 0.989 ± 0.019 for the second.

Going from TAAGTATTTT to ATTCACGGGC, the switch fluorescence ratio rises from 1.01 ± 0.027 to 1.08 ± 0.035.

TAAATTTTTA and GGAGGCTGAG are within error of each other in switch fluorescence ratio: 0.986 ± 0.052 for the first, 0.993 ± 0.011 for the second.

GGTTGTACGT and CGGGGAGTGT are within error of each other in switch fluorescence ratio: 0.984 ± 0.01 for the first, 1 ± 0.043 for the second.

GGGGAAAATA and GGACGGCTGC are within error of each other in switch fluorescence ratio: 1.007 ± 0.0048 for the first, 1.02 ± 0.029 for the second.

First: AAAAAAATAG
Second: CTTACAGTTT
The switch fluorescence ratio of the first is higher: 1.03 ± 0.014 for the first, 1 ± 0.011 for the second.

AAAGTAGCCT and CGCGTTGAAA are within error of each other in switch fluorescence ratio: 1.08 ± 0.057 for the first, 1.038 ± 0.0035 for the second.

Compared with TTTGTTTGCT, AGTGAGTGCA is higher in switch fluorescence ratio: 0.989 ± 0.025 for the first, 1.039 ± 0.0094 for the second.

ATAAGGTACG and TGTTTTTTAT are within error of each other in switch fluorescence ratio: 1.05 ± 0.077 for the first, 1.02 ± 0.047 for the second.

Going from CCTTGTACTG to TTGATCCGCT, the switch fluorescence ratio rises from 1.07 ± 0.042 to 1.74 ± 0.47.

GTTTAAATTC and ATAAGTGAAT are within error of each other in switch fluorescence ratio: 1 ± 0.08 for the first, 1.01 ± 0.013 for the second.

AGTCAGTCTG and TTTTGGGCTG are within error of each other in switch fluorescence ratio: 1.01 ± 0.059 for the first, 1 ± 0.067 for the second.

First: ACTGGATTTG
Second: AGTCCTCGGC
The switch fluorescence ratio of the first is lower: 0.9885 ± 0.002 for the first, 1.13 ± 0.071 for the second.

Going from GGAACTTTTA to GCCGAAGCTG, the switch fluorescence ratio rises from 1.01 ± 0.023 to 1.08 ± 0.003.

GCGTCCAGTT and GTGAGATATT are within error of each other in switch fluorescence ratio: 1.09 ± 0.12 for the first, 0.989 ± 0.043 for the second.

TCAATCGACA and ACTTGTGAAG are within error of each other in switch fluorescence ratio: 1 ± 0.041 for the first, 1.0247 ± 0.00063 for the second.

TTTGTGTTTG and GTGTGGGAAG are within error of each other in switch fluorescence ratio: 0.999 ± 0.016 for the first, 1.01 ± 0.028 for the second.

First: GGGCTGGGTA
Second: ACTATATGAT
The switch fluorescence ratio of the first is lower: 0.993 ± 0.018 for the first, 1.08 ± 0.043 for the second.

Going from ACGGCATAAT to ACCGGGGGCT, the switch fluorescence ratio falls from 1.11 ± 0.013 to 1.034 ± 0.0052.

TTCCGGGGAA and CTGGTCAATG are within error of each other in switch fluorescence ratio: 1.16 ± 0.21 for the first, 1.01 ± 0.063 for the second.

GTTTATATGT and AAGTTTGACC are within error of each other in switch fluorescence ratio: 1.01 ± 0.049 for the first, 0.978 ± 0.032 for the second.

GATAGAAGTA and AATTGCCGCG are within error of each other in switch fluorescence ratio: 0.9733 ± 0.0057 for the first, 1.02 ± 0.055 for the second.

TTCGCCAGAT and TAGAAAGTGT are within error of each other in switch fluorescence ratio: 1.04 ± 0.035 for the first, 1.02 ± 0.019 for the second.

CATTACTTTT and TTTAATTGGC are within error of each other in switch fluorescence ratio: 1.01 ± 0.014 for the first, 1.17 ± 0.19 for the second.

TCGAAACGGG and CGTTCTGGAG are within error of each other in switch fluorescence ratio: 1.14 ± 0.24 for the first, 1.2 ± 0.038 for the second.

ATAAATGTCA and TCGTTGGATG are within error of each other in switch fluorescence ratio: 1.01 ± 0.026 for the first, 0.9829 ± 0.0013 for the second.

CATAAGGTTT and TAAAAACGGA are within error of each other in switch fluorescence ratio: 0.971 ± 0.04 for the first, 0.989 ± 0.042 for the second.

TTTGGTATGG and GTGAAAAATT are within error of each other in switch fluorescence ratio: 0.997 ± 0.015 for the first, 0.9862 ± 0.0086 for the second.

CTCTTGTGTT and GAGGGTGCGG are within error of each other in switch fluorescence ratio: 1.02 ± 0.048 for the first, 1.01 ± 0.027 for the second.

TGGAGGGGCT and TTATAGGAAC are within error of each other in switch fluorescence ratio: 0.987 ± 0.046 for the first, 1.02 ± 0.013 for the second.

AAAGGCCCGT and ATCGGTCGGG are within error of each other in switch fluorescence ratio: 1 ± 0.0077 for the first, 1.011 ± 0.0088 for the second.

TAGGGCAAGT and GGTCGGGGGC are within error of each other in switch fluorescence ratio: 1.01 ± 0.016 for the first, 1.02 ± 0.031 for the second.

GCCATAGCTG and TCAGTAGTGA are within error of each other in switch fluorescence ratio: 1.007 ± 0.0029 for the first, 1.06 ± 0.051 for the second.

TTTTTCAGGG and GGGTGGGGTC are within error of each other in switch fluorescence ratio: 1.01 ± 0.026 for the first, 1 ± 0.034 for the second.

CATCAAGGTA and GACAGAGGGC are within error of each other in switch fluorescence ratio: 1.04 ± 0.025 for the first, 0.96 ± 0.062 for the second.

TATCTGGTAG and TTTTCCTACG are within error of each other in switch fluorescence ratio: 1 ± 0.025 for the first, 2.38 ± 1.6 for the second.

First: TCGACAGTCC
Second: AGAGACCCCG
The switch fluorescence ratio of the first is higher: 1.037 ± 0.0085 for the first, 0.971 ± 0.039 for the second.

TTCCTGGCGG and CTTCGTACAG are within error of each other in switch fluorescence ratio: 1.11 ± 0.1 for the first, 1.02 ± 0.014 for the second.

TCTCGACTCA and GGGGTAGATG are within error of each other in switch fluorescence ratio: 0.999 ± 0.02 for the first, 0.9985 ± 0.0033 for the second.

First: AGAAGTAAGA
Second: TTTGGTAGCT
The switch fluorescence ratio of the first is higher: 0.998 ± 0.0065 for the first, 0.9596 ± 0.0037 for the second.

ATCATGGGAC and TTTTAGGCCG are the same in switch fluorescence ratio: 1.03 ± 0.0069 for the first, 1.03 ± 0.042 for the second.

AATGACTTAA and CCATTTCTGA are within error of each other in switch fluorescence ratio: 1.01 ± 0.048 for the first, 1.03 ± 0.015 for the second.

Compared with ATGTGAGTAT, GAGGGTTAGT is higher in switch fluorescence ratio: 0.9753 ± 0.0028 for the first, 0.9866 ± 0.0066 for the second.

GTTGGAAAGG and AGCTATCACG are within error of each other in switch fluorescence ratio: 0.97 ± 0.039 for the first, 1 ± 0.032 for the second.

GCAGGGGGTG and TCTCGGGGCG are within error of each other in switch fluorescence ratio: 1.11 ± 0.076 for the first, 1 ± 0.055 for the second.

Going from AGCGTACTTT to AACAGTTTTA, the switch fluorescence ratio falls from 1.12 ± 0.018 to 0.972 ± 0.011.

ATTGGCTGGT and GCGGGTCATG are within error of each other in switch fluorescence ratio: 0.9998 ± 0.0052 for the first, 0.981 ± 0.021 for the second.

First: AGTTTTGAAA
Second: TTTGGTGACT
The switch fluorescence ratio of the first is lower: 0.9909 ± 0.0021 for the first, 1.018 ± 0.0063 for the second.

TATGGGACTC and AAAAATCTGC are the same in switch fluorescence ratio: 1.032 ± 0.0025 for the first, 1.03 ± 0.12 for the second.

AGAGAGGGGT and TTTTTGTGGC are within error of each other in switch fluorescence ratio: 1.01 ± 0.047 for the first, 0.985 ± 0.03 for the second.

First: TAGATGGGTC
Second: TTACGAAAGA
The switch fluorescence ratio of the first is lower: 1.01 ± 0.013 for the first, 1.07 ± 0.032 for the second.

TGAAGGATGG and TTTTCTGTTA are within error of each other in switch fluorescence ratio: 1 ± 0.027 for the first, 1.032 ± 0.0085 for the second.

TTCGGCAACG and CCTGTATCTT are within error of each other in switch fluorescence ratio: 0.997 ± 0.035 for the first, 1.03 ± 0.018 for the second.

TAAGTGGAAC and ACGGGTGGCT are the same in switch fluorescence ratio: 1.002 ± 0.0063 for the first, 1 ± 0.014 for the second.

TGTTAGTTCT and AAAAGGGGCG are within error of each other in switch fluorescence ratio: 1.02 ± 0.0089 for the first, 1 ± 0.019 for the second.

CCTGGATCGG and GTCCAAAAAC are within error of each other in switch fluorescence ratio: 1.09 ± 0.048 for the first, 1.15 ± 0.038 for the second.

CGGGTAATCT and TTATGCGGTT are within error of each other in switch fluorescence ratio: 1.5 ± 0.61 for the first, 0.992 ± 0.02 for the second.

Compared with TGTACGACGG, TGTATTTAC is higher in switch fluorescence ratio: 1.02 ± 0.023 for the first, 1.11 ± 0.048 for the second.

Sequence ATGTTCACGG has a switch fluorescence ratio of 1.01 ± 0.033.
